Reference: patent US20030148956A1 (PROCTER AND GAMBLE, published 2003)
Ends that are not written are not given here.

The binders below were run against T1, CRF2R (assay: cell-based or functional assay).
T1 sequence (Q13324 whole entry, species assumed, looked up): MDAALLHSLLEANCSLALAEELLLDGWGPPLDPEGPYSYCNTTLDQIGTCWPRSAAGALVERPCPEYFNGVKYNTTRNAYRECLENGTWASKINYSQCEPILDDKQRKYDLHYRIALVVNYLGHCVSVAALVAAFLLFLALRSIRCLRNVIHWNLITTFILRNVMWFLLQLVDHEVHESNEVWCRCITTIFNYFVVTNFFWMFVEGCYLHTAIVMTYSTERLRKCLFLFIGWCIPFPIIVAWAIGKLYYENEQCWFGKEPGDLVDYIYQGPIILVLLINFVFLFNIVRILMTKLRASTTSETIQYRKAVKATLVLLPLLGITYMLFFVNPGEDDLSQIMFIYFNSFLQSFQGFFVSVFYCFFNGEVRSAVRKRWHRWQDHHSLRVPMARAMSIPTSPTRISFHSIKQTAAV

Row | Binder | CRF2R EC50 | CRF2R Emax
1 | ZGPPISIDLPFQLLRKMIEIEKQEKEKQQATTNARLLDTV (C-terminal amide) [SEQ ID NO 20] | 7.81 nM | 99%
2 | ZGPPISIDLPFQLLRKMIEIEKQEKEKQQATTNARLLATV (C-terminal amide) [SEQ ID NO 21] | 8.46 nM | 96%
3 | ZGPPISIDLPFQLLRKMIEIEKQEKEKQQATTNARLLDRV (C-terminal amide) [SEQ ID NO 22] | 8.33 nM | 100%
4 | ZGPPISIDLPFQLLRKMIEIEKQEKEKQQATTNARLLARV (C-terminal amide) [SEQ ID NO 23] | 10.2 nM | 100%
5 | ZGPPISIDLPHHLLRKMIEIEKQEKEKQQAANNRLLLDTI (C-terminal amide) [SEQ ID NO 205] | 25 nM | 93%
6 | ZGPPISIDLPITLLRKMIEIEKQEKEKQQAANNRLLLDTI (C-terminal amide) [SEQ ID NO 24] | 43.1 nM | 100%
7 | ZGPPISIDLPQLLLRKMIEIEKQEKEKQQAANNRLLLDTI (C-terminal amide) [SEQ ID NO 196] | 27.7 nM | 97%
8 | ZGPPISIDLPQILLRKMIEIEKQEKEKQQAANNRLLLDTI (C-terminal amide) [SEQ ID NO 199] | 8.5 nM | 92%
9 | ZGPPISIDLPAHLLRKMIEIEKQEKEKQQAANNRLLLDTI (C-terminal amide) [SEQ ID NO 206] | 30.5 nM | 97%
10 | ZGPPISIDLPYHLLRKMIEIEKQEKEKQQAANNRLLLDTI (C-terminal amide) [SEQ ID NO 208] | 5.6 nM | 88%
11 | ZGPPISIDLPWQLLRKMIEIEKQEKEKQQAANNRLLLDTI (C-terminal amide) [SEQ ID NO 210] | 10.2 nM | 97%
12 | ZGPPISIDLPLVLLRKMIEIEKQEKEKQQAANNRLLLDTI (C-terminal amide) [SEQ ID NO 193] | 10.1 nM | 97%
13 | ZGPPISIDLPQHLLRKMIEIEKQEKEKQQAANNRLLLDTI (C-terminal amide) [SEQ ID NO 207] | 61.4 nM | 96%
14 | ZGPPISIDLPIWLLRKMIEIEKQEKEKQQAANNRLLLDTI (C-terminal amide) [SEQ ID NO 192] | 66.8 nM | 97%
15 | ZGPPISIDLPWHLLRKMIEIEKQEKEKQQAANNRLLLDTI (C-terminal amide) [SEQ ID NO 209] | 7.4 nM | 93%
16 | ZGPPISIDLPYLLLRKMIEIEKQEKEKQQAANNRLLLDTI (C-terminal amide) [SEQ ID NO 203] | 5.2 nM | 94%
17 | ZGPPISIDLPLFLLRKMIEIEKQEKEKQQAANNRLLLDTI (C-terminal amide) [SEQ ID NO 195] | 18.8 nM | 
18 | ZGPPISIDLPAQLLRKMIEIEKQEKEKQQAANNRLLLDTI (C-terminal amide) [SEQ ID NO 211] | 59.5 nM | 100%
19 | ZGPPISIDLPYQLLRKMIEIEKQEKEKQQAANNRLLLDTI (C-terminal amide) [SEQ ID NO 202] | 8.7 nM | 99%
20 | ZGPPISIDLPYVLLRKMIEIEKQEKEKQQAANNRLLLDTI (C-terminal amide) [SEQ ID NO 201] | 5 nM | 100%
21 | ZGPPISIDLPYILLRKMIEIEKQEKEKQQAANNRLLLDTI (C-terminal amide) [SEQ ID NO 204] | 3.6 nM | 93%
22 | ZGPPISIDLPLILLRKMIEIEKQEKEKQQAANNRLLLDTI (C-terminal amide) [SEQ ID NO 194] | 5 nM | 96%
23 | ZGPPISIDLPYTLLRKMIEIEKQEKEKQQAANNRLLLDTI (C-terminal amide) [SEQ ID NO 200] | 8.8 nM | 100%

Each binder was assayed against corticotropin releasing factor 1 receptor (assay: cell-based or functional assay).

Row | Binder | CRF1R EC50 | CRF1R Emax %
24 | DNPSLSIDLPYYLLRTLLELARTQSQRERAEQNAIIFASV-NH2 [SEQ ID NO 263] | 802 nM | 72%
25 | NDDPPISIDLPLHLLRNMIEMARIENEREQAGLNAKYLAEV-NH2 [SEQ ID NO 259] | 820 nM | 83.6%
26 | NDDPPISIDLPFYLLRNMIEMARIENEREQAGLNAKYLAEV-NH2 [SEQ ID NO 261] | 274 nM | 100%
27 | NDDPPISIDLPLFLLRNMIEMARIENEREQAGLNAKYLAEV-NH2 [SEQ ID NO 257] | 744 nM | 83.5%
28 | NDDPPISIDLPFQLLRNMIEMARIENEREQAGLNAKYLAEV-NH2 [SEQ ID NO 258] | 1000 nM | 23.6%
29 | NDDPPISIDLPFLLLRNMIEMARIENEREQAGLNAKYLAEV-NH2 [SEQ ID NO 260] | 834 nM | 89.7%
30 | NDDPPISIDLPFHLLRNMIEMARIENEREQAGLNAKYLAEV-NH2 [SEQ ID NO 262] | 408 nM | 100%
31 | ZGPPISIDVPFQLLRKMIEIEKQEKEKQQAANNRLLLDTI (C-terminal amide) [SEQ ID NO 256] | 254 nM | 100%

These binders were tested against T2, corticotropin releasing factor 2 receptor (assay: cell-based or functional assay).
T2 sequence (Q13324 whole entry, species assumed, looked up): T1 sequence (Q13324 whole entry, species assumed, looked up)

Row | Binder | CRF2R EC50 | CRF2R Emax %
32 | DNPSLSIDLPYYLLRTLLELARTQSQRERAEQNAIIFASV-NH2 [SEQ ID NO 263] | 36.2 nM | 93%
33 | NDDPPISIDLPLHLLRNMIEMARIENEREQAGLNAKYLAEV-NH2 [SEQ ID NO 259] | 100 nM | 65%
34 | NDDPPISIDLPFYLLRNMIEMARIENEREQAGLNAKYLAEV-NH2 [SEQ ID NO 261] | 100 nM | 95.3%
35 | NDDPPISIDLPLFLLRNMIEMARIENEREQAGLNAKYLAEV-NH2 [SEQ ID NO 257] | 100 nM | 72.6%
36 | NDDPPISIDLPFQLLRNMIEMARIENEREQAGLNAKYLAEV-NH2 [SEQ ID NO 258] | 100 nM | 49.3%
37 | NDDPPISIDLPFLLLRNMIEMARIENEREQAGLNAKYLAEV-NH2 [SEQ ID NO 260] | 100 nM | 89.3%
38 | NDDPPISIDLPFHLLRNMIEMARIENEREQAGLNAKYLAEV-NH2 [SEQ ID NO 262] | 100 nM | 92.2%
39 | ZGPPISIDVPFQLLRKMIEIEKQEKEKQQAANNRLLLDTI (C-terminal amide) [SEQ ID NO 256] | 12.6 nM | 100%

What follows are binders tested against CRF1R (assay: cell-based or functional assay).

Row | Binder | CRF1R EC50 | CRF1R Emax
40 | ZGPPISIDLPFQLLRKMIEIEKQEKEKQQATTNARLLDTV (C-terminal amide) [SEQ ID NO 20] | 906 nM | 60%
41 | ZGPPISIDLPFQLLRKMIEIEKQEKEKQQATTNARLLATV (C-terminal amide) [SEQ ID NO 21] | 908 nM | 88%
42 | ZGPPISIDLPFQLLRKMIEIEKQEKEKQQATTNARLLDRV (C-terminal amide) [SEQ ID NO 22] | 1000 nM | 64%
43 | ZGPPISIDLPFQLLRKMIEIEKQEKEKQQATTNARLLARV (C-terminal amide) [SEQ ID NO 23] | 1000 nM | 82%
44 | ZGPPISIDLPHHLLRKMIEIEKQEKEKQQAANNRLLLDTI (C-terminal amide) [SEQ ID NO 205] | 126 nM | 88%
45 | ZGPPISIDLPITLLRKMIEIEKQEKEKQQAANNRLLLDTI (C-terminal amide) [SEQ ID NO 24] | > 1000 nM | 18%
46 | ZGPPISIDLPQLLLRKMIEIEKQEKEKQQAANNRLLLDTI (C-terminal amide) [SEQ ID NO 196] | 447 nM | 96%
47 | ZGPPISIDLPQILLRKMIEIEKQEKEKQQAANNRLLLDTI (C-terminal amide) [SEQ ID NO 199] | 706 nM | 93%
48 | ZGPPISIDLPAHLLRKMIEIEKQEKEKQQAANNRLLLDTI (C-terminal amide) [SEQ ID NO 206] | 696 nM | 97%
49 | ZGPPISIDLPYHLLRKMIEIEKQEKEKQQAANNRLLLDTI (C-terminal amide) [SEQ ID NO 208] | 64.9 nM | 81%
50 | ZGPPISIDLPWQLLRKMIEIEKQEKEKQQAANNRLLLDTI (C-terminal amide) [SEQ ID NO 210] | 43.5 nM | 90%
51 | ZGPPISIDLPLVLLRKMIEIEKQEKEKQQAANNRLLLDTI (C-terminal amide) [SEQ ID NO 193] | 266 nM | 95%
52 | ZGPPISIDLPQHLLRKMIEIEKQEKEKQQAANNRLLLDTI (C-terminal amide) [SEQ ID NO 207] | 466 nM | 88%
53 | ZGPPISIDLPIWLLRKMIEIEKQEKEKQQAANNRLLLDTI (C-terminal amide) [SEQ ID NO 192] | 562 nM | 99%
54 | ZGPPISIDLPWHLLRKMIEIEKQEKEKQQAANNRLLLDTI (C-terminal amide) [SEQ ID NO 209] | 26.4 nM | 80%
55 | ZGPPISIDLPYLLLRKMIEIEKQEKEKQQAANNRLLLDTI (C-terminal amide) [SEQ ID NO 203] | 76.2 nM | 86%
56 | ZGPPISIDLPLFLLRKMIEIEKQEKEKQQAANNRLLLDTI (C-terminal amide) [SEQ ID NO 195] | 103 nM | 93%
57 | ZGPPISIDLPAQLLRKMIEIEKQEKEKQQAANNRLLLDTI (C-terminal amide) [SEQ ID NO 211] | 826 nM | 37%
58 | ZGPPISIDLPYQLLRKMIEIEKQEKEKQQAANNRLLLDTI (C-terminal amide) [SEQ ID NO 202] | 404 nM | 100%
59 | ZGPPISIDLPYVLLRKMIEIEKQEKEKQQAANNRLLLDTI (C-terminal amide) [SEQ ID NO 201] | 99.6 nM | 80%
60 | ZGPPISIDLPYILLRKMIEIEKQEKEKQQAANNRLLLDTI (C-terminal amide) [SEQ ID NO 204] | 32.1 nM | 74%
61 | ZGPPISIDLPLILLRKMIEIEKQEKEKQQAANNRLLLDTI (C-terminal amide) [SEQ ID NO 194] | 106 nM | 94%
62 | ZGPPISIDLPYTLLRKMIEIEKQEKEKQQAANNRLLLDTI (C-terminal amide) [SEQ ID NO 200] | 188 nM | 99%
